From patent US20140206847A1 (PANASONIC, published 2014)

Molecular target: T1, Troponin I derived from human myocardium (human, UniProt P19429 2-210)
T1 construct: Bought protein, fixed on a CM5 chip at approximately 500 RU; also called Troponin I (purchased from Funakoshi)
Assay: SPR, Biacore T100; troponin I fixed on CM5 chip, measured similarly to the mutant protein; column head 'Association Rate Ka(M^-1)'
Protocol: Using an intermolecular interaction analyzer Biacore T100 (purchased from GE health care company), the association rate of the mutant protein was measured in accordance with the manual attached to the intermolecular interaction analyzer Biacore T100.
More particularly, Troponin I (purchased from Funakoshi) derived from human myocardium having approximately 500 RU (Resonance Unit) was fixed on a CM5 chip (purchased from GE health care company). This CM5 chip was set in the Biacore T100. Then, aqueous solutions (concentration: 100 nM, 50 nM, 25 nM, 12.5 nM, and 6.25 nM, volume: 150 microliters) containing the purified mutant protein was flowed through the Biacore T100 to measure the association rate of the mutant protein.

T1 sequence (P19429 2-210 limits assumed): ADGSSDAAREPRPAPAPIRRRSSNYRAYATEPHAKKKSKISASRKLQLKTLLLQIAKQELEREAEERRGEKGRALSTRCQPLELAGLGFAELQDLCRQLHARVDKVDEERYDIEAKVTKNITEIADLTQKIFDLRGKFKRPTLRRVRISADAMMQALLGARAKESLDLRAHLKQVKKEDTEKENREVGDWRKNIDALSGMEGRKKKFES

- Ka: 5.11e+09 M⁻¹
B1: First mutant scFv antibody fragment (scFv)
scFv: DVVLTQSPLTLSVTIGQPASISCKSSQSLLDSDGKTYLNWLLQRPGQSPKRLIYLVSKLDSGVPDRFTGSGSGTDFTLKISRVEAEDLGVYYCWQGTHFPLTFGAGTKLEIKRGGGGSGGGGSGGGGSQLQLQQSGAELVRSGASVKLSCTASGFNIKDYYMNWVKQRPEQGLEWIGWIDPANGDTAYAPRFQVKADMTADKDSDTAYLQLSSLTSEDTAVYYCNADLPMDQWGQGTSVTVSSAAALESFNRNEC
notes: also called first mutant scFv antibody fragment 51; mutant first scFv antibody fragment
